Measured values taken from patent US20250043302A1, “MUTATED HYDROXYPHENYLPYRUVATE DIOXYGENASE POLYPEPTIDE, AND CODING GENE AND USE THEREOF” (BEIJING DABEINONG BIOTECHNOLOGY CO., LTD., priority 2021, published 2025).

Experiments:
Format in all cases: in vivo
[1] = tested on: Arabidopsis thaliana T1 plants; experiment: Topramezone tolerance of transgenic Arabidopsis thaliana T1 plants (spray, bleached leaf area grade, damage score); conditions: 7 DAT, Table 4; for Classification and statistics of the grade of pesticide damage: Grade 0 / Classification and statistics of the grade of pesticide damage: Grade 1 / Classification and statistics of the grade of pesticide damage: Grade 2 / Classification and statistics of the grade of pesticide damage: Grade 3: number of plants; for Scores: pesticide damage score 0-100
Procedure, shortened: (§1)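 Damage graded 0–3 from the proportion of bleached leaf area 7 days after spraying. Plants were glufosinate-selected T1 lines, 18 days after sowing, plus vector and wild-type controls. Rates: mesotrione 52.5–420, isoxaflutole 35–280, topramezone 25–200 g ai/ha, with water (0×).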

[2] = tested on: Arabidopsis thaliana T1 plants; experiment: Isoxaflutole tolerance of transgenic Arabidopsis thaliana T1 plants (spray, bleached leaf area grade, damage score); parameters: Scores (pesticide damage): scale not given here; conditions: spray, Arabidopsis thaliana T1 plants; for Classification and statistics of the grade of pesticide damage: Grade 0 (number of plants) / Classification and statistics of the grade of pesticide damage: Grade 1 (number of plants) / Classification and statistics of the grade of pesticide damage: Grade 2 (number of plants) / Classification and statistics of the grade of pesticide damage: Grade 3 (number of plants): 16 plants
Procedure, shortened: as §1

[3] = tested on: Arabidopsis thaliana T1 plants; experiment: Mesotrione tolerance of transgenic Arabidopsis thaliana T1 plants (spray, bleached leaf area grade, damage score); parameters: Scores: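 damage score 0-100 computed as Σ(N×S)/(T×M)×100 over grades 0-3 with higher meaning more damage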; conditions: Arabidopsis thaliana T1 plants; for Grade 0 (classification and statistics of the grade of pesticide damage; number of plants) / Grade 1 (classification and statistics of the grade of pesticide damage; number of plants) / Grade 2 (classification and statistics of the grade of pesticide damage; number of plants) / Grade 3 (classification and statistics of the grade of pesticide damage; number of plants): 16 plants
Procedure, shortened: as §1

[4] = isoxaflutole 35 g ai/ha (0.5x field concentration)
[5] = isoxaflutole 70 g ai/ha (1x field concentration)

B1: GmHPPDm-F372A-F383W-02: nucleotide sequence encoding Glycine max HPPD with F372A+F383W; vector DBN11749 (nucleic acid)
DNA: ATGCCAATGTACACACCATCGCTCTCCGCCCCTTCTTCCAACCATATTCAGCCATCCGTGACTCTGCCTCTCTACATCACAACCACCAAGTTGAACCTGAAGCAGCAGCACCATACGACTCCTATGCCTATACCCATGTGCAATGAGATCCAAGCACAGGCTCAGGCACAAGCTCAACCCGGATTCAAACTCGTGGGATTCAAGAACTTCGTCCGTACCAATCCAAAATCTGACCGCTTCCAGGTGAACAGATTCCACCACATAGAGTTTTGGTGTACTGATGCAACGAATGCTTCGAGGAGGTTTTCATGGGGCTTAGGCATGCCGATTGTAGCAAAGTCAGACCTTTCTACAGGGAACCAAATTCATGCAAGCTATCTGCTCCGCTCAGGTGATTTGTCTTTCTTGTTCTCAGCTCCATATTCTCCATCATTATCTGCTGGGTCATCAGCAGCATCTAGTGCGTCGATCCCTAGCTTTGATGCCGCCACCTGCCTCGCCTTCGCCGCCAAACATGGATTTGGTGTTCGCGCCATTGCTCTTGAGGTTGCCGATGCCGAGGCTGCTTTTAGCGCCTCCGTCGCCAAGGGAGCTGAGCCTGCGTCACCTCCTGTTCTTGTTGATGATCGAACTGGTTTTGCTGAAGTGCGTCTTTACGGCGACGTGGTGCTCAGATATGTTAGTTACAAGGATGCTGCTCCTCAAGCGCCGCACGCTGATCCTTCAAGATGGTTTCTTCCGGGGTTTGAGGCCGCTGCTAGTTCATCTTCCTTCCCGGAGTTGGATTACGGCATACGGCGGCTTGACCATGCTGTCGGCAATGTTCCTGAGCTTGCTCCGGCGGTACGGTACTTGAAAGGTTTCTCCGGGTTCCATGAATTTGCAGAGTTCACGGCGGAAGATGTTGGAACAAGTGAAAGCGGATTGAATTCTGTTGTTTTGGCCAACAACAGTGAAACTGTTCTGCTCCCCCTCAATGAACCAGTTTATGGCACAAAGCGCAAGAGCCAGATTGAAACATATCTCGAGCACAATGAAGGCGCCGGCGTCCAGCATCTTGCTTTGGTGACTCATGATATCTTCACAACACTTAGGGAGATGAGGAAGAGGAGTTTCCTCGGCGGGTTTGAATTCATGCCCAGTCCCCCGCCGACCTACTATGCAAATCTGCACAACAGGGCTGCAGATGTGCTGACTGTAGACCAGATCAAGCAATGTGAAGAACTTGGAATTTTAGTGGATAGAGACGACCAAGGTACACTACTTCAAATAGCCACCAAACCAGTCGGTGACAGACCAACAATTTGGATCGAGATTATACAAAGAATTGGATGCATGGTCGAGGATGAAGAAGGGAAGGTGTACCAGAAGGGAGCATGTGGTGGTTTTGGGAAAGGAAATTTTTCTGAGCTGTTTAAATCCATCGAGGAATATGAGAAAACCTTAGAAGCTAAAAGAACTGCATGA
modifications: GmHPPDm-F372A-F383W-02 Nucleotide Sequence
notes: vector DBN11749
For B1, which “Classification and statistics of the grade of pesticide damage: Grade 0” value ([1]; topramezone 25 g ai/ha (1×)) is on record?
The value was 9.

What about the “Classification and statistics of the grade of pesticide damage: Grade 1” value ([1]; topramezone 25 g ai/ha (1×)) of the same molecule?
The value was 7.

What about the “Classification and statistics of the grade of pesticide damage: Grade 2” value ([1]; topramezone 25 g ai/ha (1×)) of the same molecule?
Its value is 0.

What about the “Classification and statistics of the grade of pesticide damage: Grade 3” value ([1]; topramezone 25 g ai/ha (1×)) of the same molecule?
Its value is 0.

And the “Classification and statistics of the grade of pesticide damage: Grade 0” value ([1]; topramezone 100 g ai/ha (4×))?
The value was 5.

What about the “Classification and statistics of the grade of pesticide damage: Grade 1” value ([1]; topramezone 100 g ai/ha (4×)) of the same molecule?
Its value is 6.

What about the “Classification and statistics of the grade of pesticide damage: Grade 2” value ([1]; topramezone 100 g ai/ha (4×)) of the same molecule?
Its value is 4.

And the “Classification and statistics of the grade of pesticide damage: Grade 3” value ([1]; topramezone 100 g ai/ha (4×))?
The value was 1.

And the Scores ([1]; topramezone 25 g ai/ha (1×))?
Its Scores is 15.

And the Scores ([1]; topramezone 100 g ai/ha (4×))?
Its Scores is 35.

What about the Resistance evaluation ([1]; topramezone 25 g ai/ha (1×)) of the same molecule?
Its Resistance evaluation is “highly”.

What about the Resistance evaluation ([1]; topramezone 100 g ai/ha (4×)) of the same molecule?
Its Resistance evaluation is “poorly”.

And the Resistance evaluation [2, 4]?
The Resistance evaluation was “Highly”.

What about the “Scores (pesticide damage)” value [2, 4] of the same molecule?
Its value is 15.

What about the “Classification and statistics of the grade of pesticide damage: Grade 0 (number of plants)” value [2, 4] of the same molecule?
The value was 9.

What about the “Classification and statistics of the grade of pesticide damage: Grade 1 (number of plants)” value [2, 4] of the same molecule?
Its value is 7.

And the “Classification and statistics of the grade of pesticide damage: Grade 2 (number of plants)” value [2, 4]?
The value was 0.

What about the “Classification and statistics of the grade of pesticide damage: Grade 3 (number of plants)” value [2, 4] of the same molecule?
The value was 0.

What about the Resistance evaluation [2, 5] of the same molecule?
The Resistance evaluation was “Poorly”.

What about the “Scores (pesticide damage)” value [2, 5] of the same molecule?
Its value is 40.

What about the “Classification and statistics of the grade of pesticide damage: Grade 0 (number of plants)” value [2, 5] of the same molecule?
Its value is 4.

What about the “Classification and statistics of the grade of pesticide damage: Grade 1 (number of plants)” value [2, 5] of the same molecule?
The value was 6.

And the “Classification and statistics of the grade of pesticide damage: Grade 2 (number of plants)” value [2, 5]?
Its value is 5.

What about the “Classification and statistics of the grade of pesticide damage: Grade 3 (number of plants)” value [2, 5] of the same molecule?
Its value is 1.

What about the Resistance evaluation ([3]; mesotrione 52.5 g ai/ha) of the same molecule?
Its Resistance evaluation is “Moderately”.

What about the Scores ([3]; mesotrione 52.5 g ai/ha) of the same molecule?
The Scores was 23.

What about the “Grade 0 (classification and statistics of the grade of pesticide damage; number of plants)” value ([3]; mesotrione 52.5 g ai/ha) of the same molecule?
The value was 6.

What about the “Grade 1 (classification and statistics of the grade of pesticide damage; number of plants)” value ([3]; mesotrione 52.5 g ai/ha) of the same molecule?
Its value is 9.

What about the “Grade 2 (classification and statistics of the grade of pesticide damage; number of plants)” value ([3]; mesotrione 52.5 g ai/ha) of the same molecule?
The value was 1.

And the “Grade 3 (classification and statistics of the grade of pesticide damage; number of plants)” value ([3]; mesotrione 52.5 g ai/ha)?
The value was 0.

And the Resistance evaluation ([3]; mesotrione 105 g ai/ha)?
The Resistance evaluation was “Poorly resistant”.

What about the Scores ([3]; mesotrione 105 g ai/ha) of the same molecule?
Its Scores is 46.

What about the “Grade 0 (classification and statistics of the grade of pesticide damage; number of plants)” value ([3]; mesotrione 105 g ai/ha) of the same molecule?
The value was 2.

What about the “Grade 1 (classification and statistics of the grade of pesticide damage; number of plants)” value ([3]; mesotrione 105 g ai/ha) of the same molecule?
The value was 7.

And the “Grade 2 (classification and statistics of the grade of pesticide damage; number of plants)” value ([3]; mesotrione 105 g ai/ha)?
Its value is 6.

What about the “Grade 3 (classification and statistics of the grade of pesticide damage; number of plants)” value ([3]; mesotrione 105 g ai/ha) of the same molecule?
Its value is 1.
